In paper PMC8609364, “A Selective Tether Recruits Activated Response Regulator CheB to Its Chemoreceptor Substrate” (mBio, 2021):

How the values were obtained:
[1] = target: Tar4Q L378C, E. coli aspartate chemoreceptor Tar, all-glutaminyl form with carboxyl-terminal pentapeptide, homodimer in Nanodiscs (E. coli) (UniProt P07017); experiment: BLI; BLItz; biotinylated Tar homodimers in Nanodiscs held on an avidin sensor tip, CheB or CheBC in solution; 50 mM Tris-HCl pH 7.5, 10% glycerol, 5 mM MgCl2, 50 mM KCl, 2% BSA, 2 mM DTT; global fit, apparent rate constants, KD calculated from kon and koff
[2] = target: Tar4E L378C, E. coli aspartate chemoreceptor Tar, all-glutamyl form with carboxyl-terminal pentapeptide, homodimer in Nanodiscs (E. coli) (UniProt P07017); experiment: as above
Tar4EΔpp and Tar4QΔpp = experiment: CheB binding to pentapeptide-lacking Tar, 4E and 4Q (biolayer interferometry); design: species or system E. coli
Method: (§1) We determined the kinetics of association and dissociation of methylesterase/deamidase CheB in its low- and high-activity form with the E. coli aspartate chemoreceptor Tar using biolayer interferometry ([22], [23]) and isolated receptor homodimers in Nanodiscs ([24], [25]). Apparent rate constants of association and dissociation were derived from global fits of time courses for binding and release (see Fig. S1 in the supplemental material). Equilibrium dissociation constants were calculated from those apparent rate constants.
E. coli CheB and Salmonella CheB D56C/C207S/C309S and D56C/S164A/C207S/C309S were purified as described previously ([11]). CheBC (amino acids [aa] 153 to 349) was purified using the procedure of West et al. ([40]), except that Bio-Gel P-60, was not used. […] The extent of modification was 59% for the former and 60% for the latter determined by reversed phase chromatography essentially as described previously ([26]) and confirmed by Nano LC-Nanospray QTQF mass spectroscopy. […]
(§2) Kinetics of CheB association and dissociation with Nanodisc-embedded Tar biotinylated at L378C were determined using biolayer interferometry ([22], [23]) as measured by a BLItz instrument (ForteBio, Menlo Park, CA, USA) and described in reference. […]

[3] = test system: Tar4E and Tar4Q with or without pentapeptide; experiment: CheBC binding to pentapeptide-bearing and pentapeptide-lacking Tar (biolayer interferometry); design: species or system E. coli
Method: as §1
E. coli CheB and Salmonella CheB D56C/C207S/C309S and D56C/S164A/C207S/C309S were purified as described previously ([11]). CheBC (amino acids [aa] 153 to 349) was purified using the procedure of West et al. ([40]), except that Bio-Gel P-60, was not used. CheB D56C/C207S/C309S and CheB D56C/S164A/C207S/C309S were modified to create a disulfide-linked phosphoryl group on D56C following the procedure described in reference but using a 10-fold molar excess of DTNB [Ellman’s reagent, 5,5′-disulfanediylbis(2-nitrobenzoic acid)] rather than 90-fold and a 50-fold molar excess Na3SPO3 rather than 1,000-fold. The extent of modification was 59% for the former and 60% for the latter determined by reversed phase chromatography essentially as described previously ([26]) and confirmed by Nano LC-Nanospray QTQF mass spectroscopy. Membrane scaffold protein MSP1D1(-) ([41]) was purified as described previously ([25]). Tar4E L378C, Tar4Q L378C, Tar4EΔpp-6H L378C, and Tar4QΔpp-6H L378C were purified, incorporated into Nanodiscs at approximately one receptor dimer per disc, and biotinylated at L378C as described previously ([23], [42]). […] These activities were confirmed for representative samples used in our analyses. […]
as §2

B1: methylesterase/deamidase CheB from E. coli, low-activity, unphosphorylated form (enzyme, UniProt P07330 1-349, looked up)
chain: MSKIRVLSVDDSALMRQIMTEIINSHSDMEMVATAPDPLVARDLIKKFNPDVLTLDVEMPRMDGLDFLEKLMRLRPMPVVMVSSLTGKGSEVTLRALELGAIDFVTKPQLGIREGMLAYNEMIAEKVRTAAKASLAAHKPLSAPTTLKAGPLLSSEKLIAIGASTGGTEAIRHVLQPLPLSSPALLITQHMPPGFTRSFADRLNKLCQIGVKEAEDGERVLPGHAYIAPGDRHMELSRSGANYQIKIHDGPAVNRHRPSVDVLFHSVAKQAGRNAVGVILTGMGNDGAAGMLAMRQAGAWTLAQNEASCVVFGMPREAINMGGVCEVVDLSQVSQQMLAKISAGQAIRI
notes: CheB methylesterase/deamidase of E. coli, unphosphorylated, from plasmid pCW/cheB; measured with 2 mM DTT in the buffer; also called low-activity CheB; unmodified CheB; source: E. coli K-12 RP3098 with pCW/cheB, purified
[1]
  Kd: 160 µM
[2]
  Kd: 230 µM
Tar4EΔpp and Tar4QΔpp; Tar4QΔpp versus Tar4EΔpp
  preference for substrate (4Q) versus product (4E) form: not significantly different
Tar4EΔpp and Tar4QΔpp; ratio of KD, Tar4Δpp versus pentapeptide-bearing
  fold weaker than binding to pentapeptide / pentapeptide-bearing receptor: approximately fourfold

B2: CheBC, catalytic domain of E. coli CheB lacking the regulatory domain and linker (domain or fragment)
chain: LSSEKLIAIGASTGGTEAIRHVLQPLPLSSPALLITQHMPPGFTRSFADRLNKLCQIGVKEAEDGERVLPGHAYIAPGDRHMELSRSGANYQIKIHDGPAVNRHRPSVDVLFHSVAKQAGRNAVGVILTGMGNDGAAGMLAMRQAGAWTLAQNEASCVVFGMPREAINMGGVCEVVDLSQVSQQMLAKISAGQAIRI
[3]; compared with activated phosphorylation mimic CheB-P*
  binding to chemoreceptors versus CheB-P*: bound much more weakly to chemoreceptors than the activated phosphorylation mimic CheB-P*
[3]; ratio of KD
  preference for product form Tar4E versus substrate form Tar4Q: approximately twofold
[3]; with versus without NWETF
  effect of presence or absence of pentapeptide on binding: no significant difference in binding in the presence or absence of pentapeptide
